# According to FireProtDB (doi:10.1006/jmbi.1999.2582):
# Several values for one entry are separate records, joined by “and”; a condition that tells them apart may be missing. Identical values can stand only once.
# B1: Development-specific protein S wild type, P02966 (protein)
# chain: MANITVFYNEDFQGKQVDLPPGNYTRAQLAALGIENNTISSVKVPPGVKAILYQNDGFAGDQIEVVANAEELGPLNNNVSSIRVISVPVQPRARFFYKEQFDGKEVDLPPGQYTQAELERYGIDNNTISSVKPQGLAVVLFKNDNFSGDTLPVNSDAPTLGAMNNNTSSIRIS
# Conditions: Myxococcus xanthus, Mops-NaOH 25 mM, CaCl2 3 mM, transition: 3, reversible: Yes, whole UniProt chain shown
protein,measurement,setting,value
B1,denaturant m value,"pH 2, 20 °C, Urea, Absorbance",2.87 kcal/mol/M
same,denaturant midpoint (higher = more stable),"pH 2, 20 °C, Urea, Absorbance",2.2 M
same,unfolding free energy,"pH 2, 20 °C, Urea, Absorbance",6.21 kcal/mol
same,Tm,"pH 2, Thermal, CD",52 °C
same,denaturant m value,"pH 7, 20 °C, Urea, Absorbance",1.2 kcal/mol/M and 1.43 kcal/mol/M and 1.91 kcal/mol/M
same,unfolding free energy,"pH 7, 20 °C, Urea, Absorbance",5.02 kcal/mol and 7.41 kcal/mol and 3.59 kcal/mol
